Test results reported in paper PMC3784611 (Biochemistry, 2013).

What was measured:
[1] = target: unmyristoylated recoverin (bovine) (UniProt P21457); experiment: 15N NMR relaxation
[2] = target: unmyristoylated recoverin (bovine) (UniProt P21457); experiment: NMR pulsed-field gradient diffusion
[3] = target: the molecule itself; experiment: CW-EPR line shape

Molecule	stoichiometry N [1]	stoichiometry N [2]	stoichiometry N [3]
unmyristoylated recoverin (from UniProt P21457 1-202) (natural protein)	2	2	
myristoylated recoverin spin-labeled only at Cys39 (natural protein, bovine, N-terminal myristoyl group; nitroxide spin label at the native cysteine C39) GNSKSGALSKEILEELQLNTKFTEEELSSWYQSFLKECPSGRITRQEFQTIYSKFFPEADPKAYAQHVFRSFDANSDGTLDFKEYVIALHMTSAGKTNQKLEWAFSLYDVDGNGTISKNEVLEIVTAIFKMISPEDTKHLPEDENTPEKRAEKIWGFFGKKDDDKLTEKEFIEGTLANKEILRLIQFEPQKVKEKLKEKKL			2
